± gives the standard deviation of the averaged measurements.
Legend:
[1] = tested on: Saccharomyces cerevisiae; experiment: protein stability index of tFT-peptide fusion (C-terminal peptide) (PSI (0-1 scale)); higher = more stable (slower turnover)
Description: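 MPS profiling in S. cerevisiae of the tFT-X12 degron library: putative degron peptides plus stable controls, 12 aa, fused to the C-terminus of a sfGFP-mCherry timer. Cells are FACS-sorted into 8 mCherry/sfGFP bins and deep-sequenced. PSI runs from 0 (unstable) to 1 (stable). Backgrounds are wild type, das1Δ and doa10Δ at 30 °C, and wild type, das1Δ, cdc34-1 and cdc53-1 at 37 °C; 2-3 technical replicates each.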

[2] = tested on: Saccharomyces cerevisiae; experiment: as above; details: genetic background: wild type; temperature: 30 C
[3] = genetic background: cdc34-1, temperature: 37 C
[4] = genetic background: cdc53-1, temperature: 37 C
[5] = genetic background: das1 deletion, temperature: 30 C
[6] = genetic background: das1 deletion, temperature: 37 C
[7] = genetic background: doa10 deletion, temperature: 30 C
[8] = genetic background: wild type, temperature: 30 C
[9] = genetic background: wild type, temperature: 37 C
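Further: PSI is a weighted mean of sequencing reads over stability bins, variants kept only with over 10 reads, mCherry proximal and sfGFP distal, peptide attached via GGGS linker.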

Sequence | protein stability index [1, 3] | protein stability index [1, 4] | protein stability index [1, 5] | protein stability index [1, 6] | protein stability index [1, 7] | protein stability index [1, 8] | protein stability index [1, 9] | protein stability index [2]
VFFLLSVYMVMM | 0.145 ± 0.018 | 0.29 ± 0.075 | 0.195 ± 0.055 | 0.3338 ± 0.0028 | 0.182 ± 0.03 | 0.184 ± 0.015 | 0.32 ± 0.02 | 0.307 ± 0.065
LPLLLFYLPIIW | 0.4647 ± 0.0038 | 0.479 ± 0.0079 | 0.401 ± 0.034 | 0.521 ± 0.0097 | 0.414 ± 0.0077 | 0.389 ± 0.034 | 0.4796 ± 0.0041 | 0.464 ± 0.03
LEGRFLACRGIC | 0.619 ± 0.028 | 0.719 ± 0.048 | 0.598 ± 0.018 | 0.728 ± 0.02 | 0.144 ± 0.017 | 0.157 ± 0.011 | 0.325 ± 0.02 | 0.264 ± 0.04
CVISLVTAVRLF | 0.514 ± 0.023 | 0.5526 ± 0.0029 | 0.453 ± 0.022 | 0.589 ± 0.019 | 0.405 ± 0.028 | 0.426 ± 0.026 | 0.544 ± 0.018 | 0.4644 ± 0.0021
ISFQFFVCLCAR | 0.13 ± 0.0054 | 0.181 ± 0.0063 | 0.159 ± 0.022 | 0.289 ± 0.0036 | 0.145 ± 0.005 | 0.161 ± 0.018 | 0.253 ± 0.0092 | 0.234 ± 0.019
GVFLVWWVGFWV | 0.257 ± 0.025 | 0.401 ± 0.021 | 0.25 ± 0.035 | 0.431 ± 0.014 | 0.223 ± 0.0082 | 0.238 ± 0.029 | 0.455 ± 0.047 | 0.374 ± 0.057
IFLKFGLLRSLL | 0.9386 ± 0.006 | 0.8936 ± 0.0072 | 0.744 ± 0.012 | 0.85 ± 0.031 | 0.6161 ± 0.0027 | 0.628 ± 0.046 | 0.792 ± 0.053 | 0.488 ± 0.026
RGLANLIVIVSS | 0.572 ± 0.04 | 0.602 ± 0.0069 | 0.397 ± 0.022 | 0.603 ± 0.015 | 0.186 ± 0.012 | 0.228 ± 0.027 | 0.392 ± 0.011 | 0.374 ± 0.013
VCCSSVSLLVFA | 0.362 ± 0.017 | 0.363 ± 0.01 | 0.267 ± 0.028 | 0.44 ± 0.0076 | 0.225 ± 0.0042 | 0.256 ± 0.033 | 0.419 ± 0.01 | 0.374 ± 0.023
LFSVLVFIYFVM | 0.102 ± 0.032 | 0.113 ± 0.017 | 0.169 ± 0.034 | 0.288 ± 0.07 | 0.17 ± 0.016 | 0.133 ± 0.0054 | 0.217 ± 0.025 | 0.127 ± 0.022
FFDLSLYSLCLC | 0.623 ± 0.019 | 0.69 ± 0.059 | 0.466 ± 0.013 | 0.6476 ± 0.0029 | 0.229 ± 0.009 | 0.271 ± 0.029 | 0.4649 ± 0.0011 | 0.378 ± 0.064
GVLFHIVLHFMV | 0.24 ± 0.045 | 0.277 ± 0.01 | 0.255 ± 0.028 | 0.391 ± 0.0053 | 0.199 ± 0.017 | 0.194 ± 0.023 | 0.305 ± 0.029 | 0.27 ± 0.061
VRGWLAYLRWII | 0.58 ± 0.03 | 0.638 ± 0.026 | 0.631 ± 0.027 | 0.724 ± 0.0083 | 0.195 ± 0.012 | 0.205 ± 0.018 | 0.303 ± 0.0047 | 0.274 ± 0.018
FWLFAFVIRKHI | 0.286 ± 0.019 | 0.404 ± 0.013 | 0.324 ± 0.033 | 0.511 ± 0.007 | 0.10098 ± 0.0001 | 0.089 ± 0.0045 | 0.0641 ± 0.012 | 0.2057 ± 0.00034
CTFFCICVFFLL | 0.349 ± 0.019 | 0.413 ± 0.025 | 0.339 ± 0.027 | 0.463 ± 0.0064 | 0.267 ± 0.012 | 0.281 ± 0.022 | 0.4 ± 0.0063 | 0.392 ± 0.042
WQIGIYILQGLA | 0.271 ± 0.03 | 0.316 ± 0.0064 | 0.242 ± 0.04 | 0.389 ± 0.018 | 0.146 ± 0.011 | 0.163 ± 0.049 | 0.262 ± 0.015 | 0.256 ± 0.023
IFHWLYLLIALI | 0.459 ± 0.025 | 0.497 ± 0.015 | 0.436 ± 0.027 | 0.524 ± 0.0054 | 0.2701 ± 0.0025 | 0.254 ± 0.029 | 0.312 ± 0.014 | 0.309 ± 0.014
FYSLYLSLVCFN | 0.345 ± 0.015 | 0.389 ± 0.0083 | 0.301 ± 0.034 | 0.454 ± 0.0076 | 0.161 ± 0.01 | 0.127 ± 0.016 | 0.256 ± 0.014 | 0.224 ± 0.0011
HVPPVFQASLSP | 0.675 ± 0.072 | 0.7368 ± 0.0055 | 0.662 ± 0.014 | 0.743 ± 0.015 | 0.662 ± 0.011 | 0.667 ± 0.017 | 0.7131 ± 0.0057 | 0.747 ± 0.037
AGESLRAIAVLY | 0.647 ± 0.06 | 0.715 ± 0.025 | 0.588 ± 0.0077 | 0.6605 ± 0.004 | 0.258 ± 0.016 | 0.292 ± 0.018 | 0.47738 ± 0.00044 | 0.42 ± 0.018

Source: the supplement of paper PMC10724198
